Binding result and Kd data for 2 molecules are collected here from patent US20190194338A1 (Seagen, published 2019).

One may read the Kd as the constant that tells how readily two partners part at equilibrium. A high value points to a looser complex.

Experiment [1] addresses T1, FcγRIIIa (hCD16) on transfected CHO cells (human, UniProt P08637 17-254).
T1 construct: whole, on cells; Also expressed on Jurkat effector cells in the signalling assay; also called human FcRIIIa
Description: competition with labelled h00 on CHO cells with FcγRIIIa.

For experiment [2], the target named is T2, human BCMA expressed on cells (NCI-H929, U266, JJN3, 293:BCMA) (human, UniProt Q02223 1-184).
T2 construct: Endogenous BCMA on myeloma lines or full-length BCMA clone in HEK 293 cells; also called B-cell maturation antigen; CD269
T2 sequence: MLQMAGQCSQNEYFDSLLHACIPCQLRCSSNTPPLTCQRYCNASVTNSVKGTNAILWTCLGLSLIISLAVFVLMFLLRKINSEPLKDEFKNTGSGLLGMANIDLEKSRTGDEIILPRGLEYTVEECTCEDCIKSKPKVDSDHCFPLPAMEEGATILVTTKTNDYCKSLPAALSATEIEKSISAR
Description: binding to U266 cells.

Experiment [3] has as its target T2, human BCMA expressed on cells …. Description: binding to JJN3 cells.

T1 sequence (P08637 17-254): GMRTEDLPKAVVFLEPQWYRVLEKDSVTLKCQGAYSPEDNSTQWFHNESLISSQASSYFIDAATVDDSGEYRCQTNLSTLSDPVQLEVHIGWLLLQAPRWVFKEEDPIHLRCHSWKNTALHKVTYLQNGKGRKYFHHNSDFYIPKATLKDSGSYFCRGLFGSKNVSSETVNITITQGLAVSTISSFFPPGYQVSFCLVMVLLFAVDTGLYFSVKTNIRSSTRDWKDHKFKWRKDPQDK

B1: cSG16.17 wild-type (antibody)
heavy: not shown
light: DIQMTQSPASLSASLGETVSIECLASEDISDDLAWYQQKSGKSPQVLVYTTSRLQDGVPSRFSGSGSGTRFSLKIIVMQPEDEADYFCQQTYKFPPTFGAGTRLDLKR
notes: domain: wild-type human IgG1 heavy chain constant domains; Rat VH and VL fused to human IgG1 and kappa constants; also called chimeric SG16.17; cSG16.17 G1 WT; not shown: human kappa light chain constant domain
As for B1, in experiment [1], the binding result is listed as “binds”. Further, the Kd in experiment [2] was ~10 nM; in experiment [3], ~15 nM.

B2: cSG16.17 mutant (antibody, name in EU numbering)
heavy: QVNLLQSRAALVKPGASVKLSCEASGYTFTDYYIHWVKQSHGKSLEWIGYINPNSGYTKYNENFKTKATMTADKSTNTAYVELSRLTSEDSATYFCTRYMWERVTGFFDFWGPGTKVTVSSASTKGPSVFPLAPSSKSTSGGTAALGCLVKDYFPEPVTVSWNSGALTSGVHTFPAVLQSSGLYSLSSVVTVPSSSLGTQTYICNVNHKPSNTKVDKKVEPKSCDKTHTCPPCPAPELLGGPDVFLFPPKPKDTLMISRTPEVTCVVVDVSHEDPEVKFNWYVDGVEVHNAKTKPREEQYNSTYRVVSVLTVLHQDWLNGKEYKCKVSNKALPLPEEKTISKAKGQPREPQVYTLPPSRDELTKNQVSLTCLVKGFYPSDIAVEWESNGQPENNYKTTPPVLDSDGSFFLYSKLTVDKSRWQQGNVFSCSVMHEALHNHYTQKSLSLSPGK
light: DIQMTQSPASLSASLGETVSIECLASEDISDDLAWYQQKSGKSPQVLVYTTSRLQDGVPSRFSGSGSGTRFSLKIIVMQPEDEADYFCQQTYKFPPTFGAGTRLDLKR
notes: domain: human IgG1 heavy chain constant domains; Positions of the Fc mutations are EU numbers, not positions on the UniProt entry; also called cSG16.17 S239D:A330L:I332E; chimeric SG16.17 IgG1 S239D, A330L, I332E; not shown: human kappa light chain constant domain
For the molecule B2, in experiment [1], the binding result is given as “binds”.
